The source of these data is article PMC7512017.

Values joined by “and” are separate entries in the source; they are usually repeats but may differ in a detail not shown here. Equal values may be shown once.

Assay [1] deals with holo-CCP2 (C-terminal domain-like carotenoid protein 2 from Tolypothrix sp. PCC 7601, with bound canthaxanthin) (Tolypothrix sp. PCC 7601). As to the kind of experiment: SEC; analytical SEC on a Superdex 75 column; masses estimated with protein molecular weight standards.
The target is the same in assay [2]. As to the kind of experiment: SEC-MALS + other: SEC-SAXS; SEC-SAXS-MALS, Shodex KW802.5 column, 10 mM Na-phosphate pH 7.0, 100 mM NaCl, 20 °C; samples at 5 mg/mL (legend: apo tetramer sample 10 mg/mL); also run with reductant (5 mM TCEP). A general note: Size exclusion chromatography separates by hydrodynamic size, large species first.
Assay [3] deals with apo-CCP2 (C-terminal domain-like carotenoid protein 2 from Tolypothrix sp. PCC 7601, without carotenoid) (Tolypothrix sp. PCC 7601). Description: SEC; analytical SEC on a Superdex 75 column; masses estimated with protein molecular weight standards.
For assay [4] the target is unchanged. Description: SEC-MALS + other: SEC-SAXS; SEC-SAXS-MALS, Shodex KW802.5 column, 10 mM Na-phosphate pH 7.0, 100 mM NaCl, 20 °C; samples at 5 mg/mL (legend: apo tetramer sample 10 mg/mL); also run with reductant (5 mM TCEP).

Consider “holo-CCP2 (C-terminal domain-like carotenoid protein 2 from Tolypothrix sp. PCC 7601, with bound canthaxanthin) (natural protein)”, for which the stoichiometry N (commonly the number of molecules, sites or subunits per partner or assembly) in assay [1] was 2 and 4; in assay [2] it was 2 and 4.
For “apo-CCP2 (C-terminal domain-like carotenoid protein 2 from Tolypothrix sp. PCC 7601, without carotenoid) (natural protein)”, the stoichiometry N in assay [3] is 2 and 4; in assay [4], 2 and 3 and 4.
